Laboratory results reported in patent US20160222130A1 (Astellas, published 2016).

How the values were obtained:
Assay in all cases: SPR (Biacore T200); Tie2-Fc captured on anti-human IgG (Fc), Fab at 50 nM; mean of 3
Human Tie2 (1-452)A2-Fc = biological target: T1, Human Tie2 (1-452)A2-Fc (human, UniProt Q02763 23-452)
T1 construct: range 1-452
Procedure: (§1) SPR analysis was carried out in order to evaluate the binding activity of the human Tie2 (1-452)-Fc chimera protein and 23 mutant proteins thereof to the fully human 2-16A2-Fab.
(§2) For SPR analysis, Biacore T200 (GE Healthcare) was used. An anti-human IgG (Fc) antibody (Human Antibody Capture Kit, GE Healthcare) was fixed onto a CM5 sensor chip. The human Tie2 (1-452)-Fc chimeric protein and 23 mutant proteins thereof, diluted with HBS-EP (GE Healthcare) at 5 μg/mL, were each allowed for immobilization, and the capture-amount was measured. Thereafter, the fully human 2-16A2-Fab diluted with HBS-EP to 50 nM, the binding amount thereof to the human Tie2 (1-452)-Fc chimeric protein and 23 mutant proteins thereof were measured. Further, by dividing the binding amount with the capture-amount, the binding amount of the antibody in the unit immobilized antigen (hereinafter referred to as a binding ratio) was calculated. The arithmetic mean of three experiments and the relative value of the binding ratio of each mutant proteins when the binding ratio of the human Tie2 (1-452)-Fc chimeric protein was taken as 100% are shown in Table 7.

Human Tie2 (1-452)A3-Fc = biological target: T2, Human Tie2 (1-452)A3-Fc (human, UniProt Q02763 23-452)
T2 construct: range 1-452
T2 sequence (Q02763 other isoform, or with tags, fused parts or gaps limits assumed, form in doubt): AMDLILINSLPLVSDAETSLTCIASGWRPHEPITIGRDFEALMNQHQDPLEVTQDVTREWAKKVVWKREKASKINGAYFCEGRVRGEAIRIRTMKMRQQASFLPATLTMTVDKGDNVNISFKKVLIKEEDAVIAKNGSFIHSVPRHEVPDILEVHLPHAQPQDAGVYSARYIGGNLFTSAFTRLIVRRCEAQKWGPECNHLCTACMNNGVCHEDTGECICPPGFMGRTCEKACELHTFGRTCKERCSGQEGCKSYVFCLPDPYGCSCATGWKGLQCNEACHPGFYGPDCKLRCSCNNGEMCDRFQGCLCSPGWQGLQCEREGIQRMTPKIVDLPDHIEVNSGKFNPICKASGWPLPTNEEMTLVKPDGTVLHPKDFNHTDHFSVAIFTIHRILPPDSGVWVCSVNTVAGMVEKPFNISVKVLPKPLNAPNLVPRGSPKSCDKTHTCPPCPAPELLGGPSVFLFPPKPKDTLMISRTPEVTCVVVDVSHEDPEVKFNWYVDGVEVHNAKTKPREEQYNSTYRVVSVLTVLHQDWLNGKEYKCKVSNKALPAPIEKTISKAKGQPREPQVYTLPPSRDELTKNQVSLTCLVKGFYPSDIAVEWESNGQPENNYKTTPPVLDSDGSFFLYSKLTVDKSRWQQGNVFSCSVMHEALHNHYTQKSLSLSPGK
Procedure: as §1, §2

Human Tie2 (1-452)m3-Fc = biological target: T3, Human Tie2 (1-452)m3-Fc (human, UniProt Q02763 23-452)
T3 construct: range 1-452
Procedure: as §1, §2

Human Tie2 (1-452)r1-Fc = biological target: T4, Human Tie2 (1-452)r1-Fc (human, UniProt Q02763 23-452)
T4 construct: range 1-452
Procedure: as §1, §2

Human Tie2 (1-452)A1-Fc = biological target: T5, Human Tie2 (1-452)A1-Fc (human, UniProt Q02763 23-452)
T5 construct: range 1-452
T5 sequence (Q02763 other isoform, or with tags, fused parts or gaps limits assumed, form in doubt): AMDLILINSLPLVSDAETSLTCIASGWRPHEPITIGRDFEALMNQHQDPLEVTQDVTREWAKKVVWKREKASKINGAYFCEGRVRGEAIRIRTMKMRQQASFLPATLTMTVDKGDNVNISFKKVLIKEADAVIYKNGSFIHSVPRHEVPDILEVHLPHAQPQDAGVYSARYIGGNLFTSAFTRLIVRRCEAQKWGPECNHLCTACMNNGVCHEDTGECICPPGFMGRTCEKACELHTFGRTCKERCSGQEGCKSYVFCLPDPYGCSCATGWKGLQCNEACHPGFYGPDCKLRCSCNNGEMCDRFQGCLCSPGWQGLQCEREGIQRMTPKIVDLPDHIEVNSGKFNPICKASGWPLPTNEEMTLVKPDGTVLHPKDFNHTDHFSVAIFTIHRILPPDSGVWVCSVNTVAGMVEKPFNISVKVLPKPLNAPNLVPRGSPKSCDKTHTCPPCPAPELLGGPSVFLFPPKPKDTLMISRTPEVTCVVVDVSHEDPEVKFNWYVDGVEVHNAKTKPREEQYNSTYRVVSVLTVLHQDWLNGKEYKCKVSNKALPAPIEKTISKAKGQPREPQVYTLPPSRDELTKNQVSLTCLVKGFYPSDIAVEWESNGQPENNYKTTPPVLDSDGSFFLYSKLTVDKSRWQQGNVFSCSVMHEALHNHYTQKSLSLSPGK
Procedure: as §1, §2

Human Tie2 (1-452)r3-Fc = biological target: T6, Human Tie2 (1-452)r3-Fc (human, UniProt Q02763 23-452)
T6 construct: range 1-452
Procedure: as §1, §2

Human Tie2 (1-452)r4-Fc = biological target: T7, Human Tie2 (1-452)r4-Fc (human, UniProt Q02763 23-452)
T7 construct: range 1-452
Procedure: as §1, §2

[1] = biological target: T8, human Tie2 (1-452)-Fc chimeric protein (human, UniProt Q02763 23-452)
T8 construct: range 1-452; The stated range 1-452 begins at residue 1 of the precursor
Procedure: as §1, §2

Human Tie2 (1-452)A5-Fc = biological target: T9, Human Tie2 (1-452)A5-Fc (human, UniProt Q02763 23-452)
T9 construct: range 1-452
Procedure: as §1, §2

Human Tie2 (1-452)g5-Fc = biological target: T10, Human Tie2 (1-452)g5-Fc (human, UniProt Q02763 23-452)
T10 construct: range 1-452
T10 sequence (Q02763 other isoform, or with tags, fused parts or gaps limits assumed, form in doubt): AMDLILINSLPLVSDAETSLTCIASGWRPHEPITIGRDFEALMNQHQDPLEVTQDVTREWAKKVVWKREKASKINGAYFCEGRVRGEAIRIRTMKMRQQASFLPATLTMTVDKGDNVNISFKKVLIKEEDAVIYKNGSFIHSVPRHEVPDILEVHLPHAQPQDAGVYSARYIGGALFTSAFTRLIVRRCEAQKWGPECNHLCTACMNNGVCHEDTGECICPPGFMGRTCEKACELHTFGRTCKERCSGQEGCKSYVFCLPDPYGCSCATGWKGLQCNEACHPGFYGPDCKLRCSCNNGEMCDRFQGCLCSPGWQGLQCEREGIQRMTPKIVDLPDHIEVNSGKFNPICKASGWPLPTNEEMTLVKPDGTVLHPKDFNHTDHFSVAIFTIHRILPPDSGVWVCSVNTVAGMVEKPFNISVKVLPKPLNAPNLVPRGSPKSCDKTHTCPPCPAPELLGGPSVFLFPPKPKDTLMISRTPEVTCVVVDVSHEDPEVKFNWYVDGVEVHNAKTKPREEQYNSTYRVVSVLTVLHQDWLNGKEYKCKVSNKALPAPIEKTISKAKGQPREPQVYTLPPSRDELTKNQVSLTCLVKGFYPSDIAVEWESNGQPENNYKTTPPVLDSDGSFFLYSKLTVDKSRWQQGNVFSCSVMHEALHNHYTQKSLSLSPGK
Procedure: as §1, §2

Human Tie2 (1-452)g2-Fc = biological target: T11, Human Tie2 (1-452)g2-Fc (human, UniProt Q02763 23-452)
T11 construct: range 1-452
T11 sequence (Q02763 other isoform, or with tags, fused parts or gaps limits assumed, form in doubt): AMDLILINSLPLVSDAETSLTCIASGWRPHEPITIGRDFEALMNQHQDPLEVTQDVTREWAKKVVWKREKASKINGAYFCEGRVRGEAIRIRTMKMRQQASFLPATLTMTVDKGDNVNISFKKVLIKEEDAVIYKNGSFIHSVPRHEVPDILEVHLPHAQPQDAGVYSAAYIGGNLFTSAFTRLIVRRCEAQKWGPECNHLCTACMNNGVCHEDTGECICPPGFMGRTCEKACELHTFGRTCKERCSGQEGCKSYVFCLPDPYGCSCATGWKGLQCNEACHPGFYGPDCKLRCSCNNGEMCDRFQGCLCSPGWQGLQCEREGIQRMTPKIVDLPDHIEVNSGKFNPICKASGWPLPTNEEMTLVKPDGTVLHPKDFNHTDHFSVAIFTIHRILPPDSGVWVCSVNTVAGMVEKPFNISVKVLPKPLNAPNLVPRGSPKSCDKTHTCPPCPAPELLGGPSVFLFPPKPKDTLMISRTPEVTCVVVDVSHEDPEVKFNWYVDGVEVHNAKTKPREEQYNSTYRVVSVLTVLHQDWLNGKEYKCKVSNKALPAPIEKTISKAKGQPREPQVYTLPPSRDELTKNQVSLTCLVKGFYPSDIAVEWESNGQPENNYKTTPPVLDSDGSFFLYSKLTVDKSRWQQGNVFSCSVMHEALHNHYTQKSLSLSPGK
Procedure: as §1, §2

Human Tie2 (1-452)g1-Fc = biological target: T12, Human Tie2 (1-452)g1-Fc (human, UniProt Q02763 23-452)
T12 construct: range 1-452
T12 sequence (Q02763 other isoform, or with tags, fused parts or gaps limits assumed, form in doubt): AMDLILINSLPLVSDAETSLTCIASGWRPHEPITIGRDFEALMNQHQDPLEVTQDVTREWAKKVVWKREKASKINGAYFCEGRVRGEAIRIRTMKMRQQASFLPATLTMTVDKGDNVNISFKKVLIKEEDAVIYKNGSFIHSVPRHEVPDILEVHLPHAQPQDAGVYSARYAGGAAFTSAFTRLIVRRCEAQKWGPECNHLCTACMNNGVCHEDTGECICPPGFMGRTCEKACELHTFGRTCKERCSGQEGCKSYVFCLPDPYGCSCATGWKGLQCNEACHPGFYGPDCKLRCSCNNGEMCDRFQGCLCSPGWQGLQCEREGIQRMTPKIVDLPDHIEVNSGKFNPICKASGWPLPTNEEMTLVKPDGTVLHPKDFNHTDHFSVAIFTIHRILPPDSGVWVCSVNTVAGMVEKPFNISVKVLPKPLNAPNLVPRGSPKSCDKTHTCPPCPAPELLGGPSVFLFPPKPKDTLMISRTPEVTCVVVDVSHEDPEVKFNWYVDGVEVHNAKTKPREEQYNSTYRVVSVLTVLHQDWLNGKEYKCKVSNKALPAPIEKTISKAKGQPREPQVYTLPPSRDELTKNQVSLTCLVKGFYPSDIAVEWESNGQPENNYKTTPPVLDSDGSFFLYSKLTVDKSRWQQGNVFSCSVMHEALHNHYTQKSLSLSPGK
Procedure: as §1, §2

Human Tie2 (1-452)m1-Fc = biological target: T13, Human Tie2 (1-452)m1-Fc (human, UniProt Q02763 23-452)
T13 construct: range 1-452
T13 sequence (Q02763 other isoform, or with tags, fused parts or gaps limits assumed, form in doubt): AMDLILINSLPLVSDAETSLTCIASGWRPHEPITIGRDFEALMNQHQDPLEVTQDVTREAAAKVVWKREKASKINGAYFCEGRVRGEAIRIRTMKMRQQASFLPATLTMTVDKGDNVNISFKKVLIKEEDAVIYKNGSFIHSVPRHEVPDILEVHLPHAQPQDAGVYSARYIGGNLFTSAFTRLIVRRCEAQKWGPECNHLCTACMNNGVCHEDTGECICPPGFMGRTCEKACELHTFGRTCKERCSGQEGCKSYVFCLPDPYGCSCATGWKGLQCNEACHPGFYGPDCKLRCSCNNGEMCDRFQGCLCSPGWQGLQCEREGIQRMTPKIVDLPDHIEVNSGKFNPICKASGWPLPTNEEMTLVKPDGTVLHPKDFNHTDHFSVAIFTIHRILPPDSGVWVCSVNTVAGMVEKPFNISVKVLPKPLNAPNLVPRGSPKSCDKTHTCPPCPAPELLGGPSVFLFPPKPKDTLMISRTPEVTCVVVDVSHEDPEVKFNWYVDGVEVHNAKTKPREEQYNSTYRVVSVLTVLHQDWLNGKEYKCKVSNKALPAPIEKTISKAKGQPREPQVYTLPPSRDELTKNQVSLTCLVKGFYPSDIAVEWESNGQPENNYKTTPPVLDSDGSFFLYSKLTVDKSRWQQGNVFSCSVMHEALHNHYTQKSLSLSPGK
Procedure: as §1, §2

Human Tie2 (1-452)r7-Fc = biological target: T14, Human Tie2 (1-452)r7-Fc (human, UniProt Q02763 23-452)
T14 construct: range 1-452
Procedure: as §1, §2

Human Tie2 (1-452)g6-Fc = biological target: T15, Human Tie2 (1-452)g6-Fc (human, UniProt Q02763 23-452)
T15 construct: range 1-452
Procedure: as §1, §2

Human Tie2 (1-452)r6-Fc = biological target: T16, Human Tie2 (1-452)r6-Fc (human, UniProt Q02763 23-452)
T16 construct: range 1-452
Procedure: as §1, §2

Human Tie2 (1-452)g4-Fc = biological target: T17, Human Tie2 (1-452)g4-Fc (human, UniProt Q02763 23-452)
T17 construct: range 1-452
Procedure: as §1, §2

T1 sequence (Q02763 other isoform, or with tags, fused parts or gaps limits assumed, form in doubt): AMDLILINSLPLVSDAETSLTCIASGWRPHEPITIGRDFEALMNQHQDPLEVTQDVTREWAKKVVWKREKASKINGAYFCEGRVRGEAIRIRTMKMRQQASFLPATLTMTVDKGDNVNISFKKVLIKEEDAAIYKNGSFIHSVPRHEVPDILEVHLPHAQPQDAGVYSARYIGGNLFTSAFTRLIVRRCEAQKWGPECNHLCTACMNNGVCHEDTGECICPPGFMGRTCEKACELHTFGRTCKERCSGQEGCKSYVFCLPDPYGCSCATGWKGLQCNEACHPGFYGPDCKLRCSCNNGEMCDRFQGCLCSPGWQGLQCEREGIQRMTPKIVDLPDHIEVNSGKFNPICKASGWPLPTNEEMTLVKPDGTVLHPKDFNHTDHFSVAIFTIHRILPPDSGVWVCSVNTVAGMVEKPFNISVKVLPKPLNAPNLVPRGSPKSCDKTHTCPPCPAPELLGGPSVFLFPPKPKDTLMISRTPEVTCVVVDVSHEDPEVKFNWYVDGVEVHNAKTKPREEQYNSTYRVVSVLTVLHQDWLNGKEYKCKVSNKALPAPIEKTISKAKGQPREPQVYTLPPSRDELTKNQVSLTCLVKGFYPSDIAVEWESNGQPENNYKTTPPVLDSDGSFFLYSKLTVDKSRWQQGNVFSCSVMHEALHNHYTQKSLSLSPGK

B1: fully human 2-16A2-Fab (Fab, V domains shown)
VH: EVQLVESGGGLVQPGGSLRLSCAASGFTFDDYAMHWVRQAPGKGLEWVAGISWNSGSIVYADSVKGRFTISRDNSKNTLYLQMNSLRAEDTAVYYCAKDIREQLVEDAFDIWGQGTLVTVSS
VL: DIQMTQSPSSLSASVGDRVTITCRSSQSLLHSHRYNYLDWYQQKPGKAPKLLIYLGSNRASGVPSRFSGSGSGTDFTLTISSVQPEDFATYYCMQTLQTPLTFGQGTKVEIKR
notes: also called Fab of the fully human 2-16A2
Binding ratio (Human Tie2 (1-452)A2-Fc): 0.08
Relative value (%) of binding ratio (human Tie2 (1-452)-Fc chimeric protein = 100%) (Human Tie2 (1-452)A2-Fc): 29%
Binding ratio (Human Tie2 (1-452)A3-Fc): 0.17
Relative value (%) of binding ratio (human Tie2 (1-452)-Fc chimeric protein = 100%) (Human Tie2 (1-452)A3-Fc): 59%
Binding ratio (Human Tie2 (1-452)m3-Fc): 0.04
Relative value (%) of binding ratio (human Tie2 (1-452)-Fc chimeric protein = 100%) (Human Tie2 (1-452)m3-Fc): 12%
Binding ratio (Human Tie2 (1-452)r1-Fc): 0.29
Relative value (%) of binding ratio (human Tie2 (1-452)-Fc chimeric protein = 100%) (Human Tie2 (1-452)r1-Fc): 102%
Binding ratio (Human Tie2 (1-452)A1-Fc): 0.1
Relative value (%) of binding ratio (human Tie2 (1-452)-Fc chimeric protein = 100%) (Human Tie2 (1-452)A1-Fc): 34%
Binding ratio (Human Tie2 (1-452)r3-Fc): 0.34
Relative value (%) of binding ratio (human Tie2 (1-452)-Fc chimeric protein = 100%) (Human Tie2 (1-452)r3-Fc): 119%
Binding ratio (Human Tie2 (1-452)r4-Fc): 0.33
Relative value (%) of binding ratio (human Tie2 (1-452)-Fc chimeric protein = 100%) (Human Tie2 (1-452)r4-Fc): 113%
Binding ratio [1]: 0.29
Relative value (%) of binding ratio (human Tie2 (1-452)-Fc chimeric protein = 100%) [1]: 100%
Binding ratio (Human Tie2 (1-452)A5-Fc): 0.39
Relative value (%) of binding ratio (human Tie2 (1-452)-Fc chimeric protein = 100%) (Human Tie2 (1-452)A5-Fc): 135%
Binding ratio (Human Tie2 (1-452)g5-Fc): 0.03
Relative value (%) of binding ratio (human Tie2 (1-452)-Fc chimeric protein = 100%) (Human Tie2 (1-452)g5-Fc): 9%
Binding ratio (Human Tie2 (1-452)g2-Fc): 0.03
Relative value (%) of binding ratio (human Tie2 (1-452)-Fc chimeric protein = 100%) (Human Tie2 (1-452)g2-Fc): 9%
Binding ratio (Human Tie2 (1-452)g1-Fc): 0
Relative value (%) of binding ratio (human Tie2 (1-452)-Fc chimeric protein = 100%) (Human Tie2 (1-452)g1-Fc): 0%
Binding ratio (Human Tie2 (1-452)m1-Fc): 0.31
Relative value (%) of binding ratio (human Tie2 (1-452)-Fc chimeric protein = 100%) (Human Tie2 (1-452)m1-Fc): 107%
Binding ratio (Human Tie2 (1-452)r7-Fc): 0.3
Relative value (%) of binding ratio (human Tie2 (1-452)-Fc chimeric protein = 100%) (Human Tie2 (1-452)r7-Fc): 106%
Binding ratio (Human Tie2 (1-452)g6-Fc): 0.38
Relative value (%) of binding ratio (human Tie2 (1-452)-Fc chimeric protein = 100%) (Human Tie2 (1-452)g6-Fc): 131%
Binding ratio (Human Tie2 (1-452)r6-Fc): 0.29
Relative value (%) of binding ratio (human Tie2 (1-452)-Fc chimeric protein = 100%) (Human Tie2 (1-452)r6-Fc): 100%
Binding ratio (Human Tie2 (1-452)g4-Fc): 0.02
Relative value (%) of binding ratio (human Tie2 (1-452)-Fc chimeric protein = 100%) (Human Tie2 (1-452)g4-Fc): 7%
